# Experimental data: publication PMC8486240
# B1: Probe1 unlabelled (cold competitor) (dsDNA)
# DNA 1: TGAAATGATGATAAGCACATGGATATATGGCCTGGAAAAC
# DNA 2: GTTTTCCAGGCCATATATCCATGTGCTTATCATCATTTCA
# B2: Mutant-Probe1 (dsDNA)
# DNA 1: TGAAATGATGATAAGAGTGGAGATATATGGCCTGGAAAAC
# DNA 2: GTTTTCCAGGCCATATATCTCCACTCTTATCATCATTTCA
# Columns and labels:
# PpbHLH1 [1] = target: T1, PpbHLH1 (Prunus persica, UniProt M5W438 1-344); assay: competition
# PpbHLH1 [2] = target: T1, PpbHLH1; assay: EMSA
binder,measurement,setting,value
B1,binding result,PpbHLH1 [1],binds
B2,binding result,PpbHLH1 [2],no binding
